Experiment [1] addresses T1, hANGPTL4 peptide (R34-L66 of SEQ ID NO:476) (human).
T1 peptide: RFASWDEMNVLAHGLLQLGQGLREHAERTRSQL
In words: SPR (Biacore), antibody captured on anti-human Fc, peptide injected. As for the experimental part:
(§1) Further, the binding affinities of H1H268P and H1H284P for various ANGPTL3 and ANGPTL4 peptides were also determined by BIACORE™ system. Briefly, H1H268P (1348±11 RU) and H1H284P (868±13 RU) were captured over anti-human Fc surface and various concentrations (62.5 nM-500 nM) of the hANGPTL3 and hANGPTL4 peptides were injected. […] Kinetic analysis was performed to measure kₐ and kd, and KD values and half-life of antigen/antibody complex dissociation were calculated. NB: No binding under the experimental conditions described.

The target of experiment [2] is T2, N-terminally biotinylated hANGPTL4 peptide (R34-L66 of SEQ ID NO:476) (human, N-terminal biotin).
T2 construct: also called hANGPTL4-Nterm biotin
T2 peptide: T1 peptide
Described as above. As for the experimental part:
as §1

Experiment [3] concerns the target T3, N-terminally biotinylated hANGPTL3 peptide (R36-I68 of SEQ ID NO:485) (human, N-terminal biotin).
T3 construct: also called hANGPTL3-Nterm biotin
T3 peptide: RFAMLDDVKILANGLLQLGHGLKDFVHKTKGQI
Described as above. As for the experimental part:
as §1

The target in experiment [4] is T4, hANGPTL3 peptide (R36-I68 of SEQ ID NO:485) (human).
T4 peptide: T3 peptide
The experiment is described as above. How it is done:
as §1

Experiment [5] deals with T5, full-length hANGPTL4 (amino acid residues 26-406 of SEQ ID NO:476) with a C-terminal hexa-histidine tag (human, UniProt Q9BY76 26-406).
T5 sequence: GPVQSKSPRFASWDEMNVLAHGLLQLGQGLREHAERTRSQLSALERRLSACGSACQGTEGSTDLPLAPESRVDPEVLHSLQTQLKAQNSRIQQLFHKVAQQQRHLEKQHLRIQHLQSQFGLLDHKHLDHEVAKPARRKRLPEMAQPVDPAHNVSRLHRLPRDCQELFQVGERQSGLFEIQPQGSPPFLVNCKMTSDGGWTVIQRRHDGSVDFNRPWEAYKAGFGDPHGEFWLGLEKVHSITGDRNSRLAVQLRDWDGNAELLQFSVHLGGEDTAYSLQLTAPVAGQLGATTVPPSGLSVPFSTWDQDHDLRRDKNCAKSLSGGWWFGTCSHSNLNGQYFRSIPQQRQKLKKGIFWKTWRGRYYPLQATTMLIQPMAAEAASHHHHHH
Description: cell-based or functional assay.

For experiment [6], the target named is T6, cynomolgus monkey ANGPTL4 N-terminal region (amino acid residues 26-148) with an N-terminal hexa-histidine tag (cynomolgus monkey, UniProt Q9BY76 26-148 (human entry)).
T6 chain: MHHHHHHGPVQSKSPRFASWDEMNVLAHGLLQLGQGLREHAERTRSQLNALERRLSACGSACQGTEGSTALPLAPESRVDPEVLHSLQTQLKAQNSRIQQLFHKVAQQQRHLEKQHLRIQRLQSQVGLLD
In words: cell-based or functional assay.

For experiment [7], the target named is T7, amino acid residues 26-148 of human ANGPTL4 fused in-line to mouse IgG2a (hANGPTL4-mFc) (human).
T7 chain: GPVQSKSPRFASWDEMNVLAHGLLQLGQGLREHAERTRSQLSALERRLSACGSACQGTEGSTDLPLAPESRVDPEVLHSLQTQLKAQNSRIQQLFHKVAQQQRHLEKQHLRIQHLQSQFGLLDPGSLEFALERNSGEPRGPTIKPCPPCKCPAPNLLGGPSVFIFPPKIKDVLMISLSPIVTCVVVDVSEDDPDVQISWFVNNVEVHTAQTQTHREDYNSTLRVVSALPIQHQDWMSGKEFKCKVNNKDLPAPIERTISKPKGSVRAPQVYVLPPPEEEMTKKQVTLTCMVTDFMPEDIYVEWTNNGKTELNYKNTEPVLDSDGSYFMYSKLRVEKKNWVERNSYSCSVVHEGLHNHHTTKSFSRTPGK
In words: cell-based or functional assay.

Experiment [8] deals with T7, amino acid residues 26-148 of human …. In words: SPR (Biacore T100), hANGPTL4-mFc captured by anti-mouse IgG, antibody injected, 25° C. How it is done:
Antigen-antibody binding and dissociation were monitored in real time at 25° C. and 37° C. Kinetic analysis was performed to calculate KD and half-life of antigen/antibody complex dissociation.
Background: Surface plasmon resonance follows binding to a sensor surface in real time, without labels.

The target in experiment [9] is T5, full-length hANGPTL4 (amino acid …). In words: SPR (Biacore), 25° C., pH 5.75, antigen amino-coupled 450 RU. As for the experimental part:
(§2) Kinetic analysis was performed to measure kₐ and kd, and KD values and half-life of antigen/antibody complex dissociation were calculated. The results are shown in Table 4 (H1H268P) and Table 5 (H1H284P).

Experiment [10] concerns the target T7, amino acid residues 26-148 of human …. In words: SPR (Biacore), 25° C., pH 5.75, antigen captured by anti-mFc. How it is done:
as §2

Experiment [11] concerns the target T5, full-length hANGPTL4 (amino acid …). In words: cell-based or functional assay. The source holds these as a separate data set.
Experiment [12] deals with T7, amino acid residues 26-148 of human …. In words: cell-based or functional assay.

B1: H1H284P (antibody, V domains shown)
VH: QVQLVESGGGVVQPGRSLRLSCAASGFTFSSYGMHWVRQAPGKGLEWMAVISFDGGNKNNADSVKGRFTISRDNSKNTLYLQMNSLRAEDTAVYYCAKEGDRSGHPYFYYYGLDVWGQGTTVTVS
VL: DIQLTQSPSFLSASVGDRVTITCWASQGISSYLAWYQQKPGKAPKLLIYAASTLQSGVPSRFSGSGSETEFTLTISSLQPEDFATYYCQQLHSYPLTFGGGTKVEIK
notes: also called entire H1H284 mAb; Full mAb
For the molecule B1, the binding result in experiment [1] is “no binding (tested: 500 nM)”; in experiment [2], “no binding (tested: 500 nM)”; in experiment [3], “no binding (tested: 62.5 nM-500 nM)”; in experiment [4], “no binding (tested: 62.5 nM-500 nM)”. The “IC50 (nM) in the LPL bioassay, constant ANGPTL4 10 nM” value in experiment [5] worked out at 0.31 nM; in experiment [6] it was 0.42 nM. Also, the “IC50 (nM) in the LPL bioassay, constant ANGPTL4 2 nM” value in experiment [7] was 0.51 nM. Moreover, the values for the dissociation constant Kd in experiment [8], in [9] and in [10] were 0.168 nM, 0.141 nM and 0.0819 nM, respectively. Further, the t1/2 in [8] came out at 2.7 h; in experiment [9], 0.7 h; in experiment [10], 2.17 h. The off-rate (koff) in [9] was 0.000272 s⁻¹; in experiment [10] it was 8.91e-05 s⁻¹. Besides, the results for the kon in experiment [9] and in experiment [10] were 1.93e+06 M⁻¹ s⁻¹ and 1.09e+06 M⁻¹ s⁻¹, respectively. The “IC50, antibody concentration required for 50% maximum inhibition of 10 nM hANGPTL4-His (LPL lipase test)” value in experiment [11] amounted to 0.5 nM. In addition, the “IC50, antibody concentration required for 50% maximum inhibition of 2 nM hANGPTL4-mFc (LPL lipase test)” value in [12] is 0.8 nM.

B2: H1H268P (antibody, V domains shown)
VH: QVQLQESGAGLLKPSETLSLTCTVYGGSFSIHHWTWIRHPPGKGLEWIGEINHRGSTNYNPSLKSRVTISIDTSKNQFSLKLSAVTAADTAVYYCARGLRFLDWLSSYFDYWGQGTLVTVSS
VL: DIQMTQSPSSLSASVGDRVTITCRASQGISDYLAWYQQKPGKVPNLLIYAASALQSGVPSRFSGSGSGTDFTLTISSLQPEDVATYYCQNYNTAPLTFGGGTKVEIK
notes: also called entire H1H268 mAb; Full mAb
In the case of B2, the equilibrium dissociation constant (Kd) in [1] came out at 56.3 nM; in experiment [2], 64.8 nM; in experiment [8], 0.275 nM; in experiment [9], 0.483 nM; in experiment [10] it was 0.22 nM. Further, the koff in experiment [1] came to 0.000365 s⁻¹; in experiment [2] it was 0.000294 s⁻¹; in experiment [9] it was 0.000446 s⁻¹; in [10] it was 0.000138 s⁻¹. The association rate constant (kon) in experiment [1] is 6490 M⁻¹ s⁻¹; in experiment [2], 4530 M⁻¹ s⁻¹; in [9], 923000 M⁻¹ s⁻¹; in [10] it was 628000 M⁻¹ s⁻¹. The t1/2 in [1] worked out at 0.533 h; in experiment [2], 0.65 h; in [8] it was 1.33 h; in [9], 0.433 h; in experiment [10] it was 1.4 h. Also, the binding result in experiment [3] and in experiment [4] was “no binding (tested: 62.5 nM-500 nM)” in each case. In addition, the figures for the “IC50 (nM) in the LPL bioassay, constant ANGPTL4 10 nM” value in [5] and in experiment [6] were 0.46 nM and 0.42 nM, respectively. For the same molecule, in experiment [7], the “IC50 (nM) in the LPL bioassay, constant ANGPTL4 2 nM” value is 0.47 nM. The “IC50, antibody concentration required for 50% maximum inhibition of 10 nM hANGPTL4-His (LPL lipase test)” value in experiment [11] turned out to be 0.2 nM. In addition, the “IC50, antibody concentration required for 50% maximum inhibition of 2 nM hANGPTL4-mFc (LPL lipase test)” value in [12] turned out to be 1.2 nM.

A word on the Kd: it is the concentration at which binding is half-saturated. Usually koff stands for the rate constant with which the complex falls apart. What is called kon is a measure of how fast the partners come together.
